Bridge positions count the residues as written; N and C are the ends. Ends that are not written are not given here. COCH2 = acetyl group that carries the bridge
B1: cyclic peptide SEQ ID NO: 34 (peptide)
peptide: CRALLRGAPFHLAEC
modifications: disulfide 1-15
notes: also called cyclic peptide reported in WO2000/003245A

Target: T1, Recombinant Human FGFR2 alpha (IIIc) Fc Chimera Protein (Homo sapiens, UniProt P21802)
T1 construct: Fc (chimera); purchased R&D systems 712-FR-050
Assay: ELISA binding affinity of enzymatically synthesized peptide to FGFR
Details: ELISA luminescence signal at 10 nmol/L peptide, SEQ ID NO: 47 at 10 nmol/L standardized to 1; enzyme synthesis product
Procedure: The binding affinity of the peptide to FGFR was evaluated using an ELISA method.
The binding affinity of the enzymatically synthesized peptide to FGFR was measured by evaluating the amount of the peptide bound to FGFR by ELISA.
First, 5 ng of Recombinant Human FGFR2 alpha (IIIc) Fc Chimera Protein (R&D systems, 712-FR-050) was immobilized in each well of a 96-well plate, and blocked with Pierce Protein-Free (PBS) Blocking Buffer (Thermo, 37572), and a peptide diluted with Can Get Signal Immunoreaction Enhancer Solution I (TOYOBO, NKB-101) was then added and reacted at room temperature for 3 hours. After washing with 0.05% Tween 20-containing phosphate buffered saline (PBS), an anti-Myc antibody (Cell Signaling, 14038S) diluted with Can Get Signal Immunoreaction Enhancer Solution II (TOYOBO, NKB-101) was added and reacted at room temperature for 2 hours. After washing with 0.05% Tween 20-containing PBS, SuperSignal ELISA Femto Substrate (Thermo, 37075) was added, and the luminescence amount was measured. The dose-response relationship was calculated from using the difference between the luminescence amount in the well in which FGFR was immobilized and the luminescence amount in the well in which FGFR was not immobilized, and the concentration of the peptide at the time of reaction, and the binding affinity to FGFR was evaluated according to the following evaluation criteria. The evaluation result preferably satisfies the evaluation criteria A, B, or C.
In a case where a value of a luminescence signal emitted by the cyclic peptide set forth in SEQ ID NO: 47 at a reaction concentration of 10 nmol/L is standardized to 1, evaluation criteria of the luminescence signal value emitted by the cyclic peptide at a reaction concentration of 10 nmol/L is as follows. • A: 0.7 or more • B: 0.5 or more and less than 0.7 • C: 0.1 or more and less than 0.5 • D: less than 0.1.

T1 sequence (P21802 with tags, fused parts or gaps limits assumed): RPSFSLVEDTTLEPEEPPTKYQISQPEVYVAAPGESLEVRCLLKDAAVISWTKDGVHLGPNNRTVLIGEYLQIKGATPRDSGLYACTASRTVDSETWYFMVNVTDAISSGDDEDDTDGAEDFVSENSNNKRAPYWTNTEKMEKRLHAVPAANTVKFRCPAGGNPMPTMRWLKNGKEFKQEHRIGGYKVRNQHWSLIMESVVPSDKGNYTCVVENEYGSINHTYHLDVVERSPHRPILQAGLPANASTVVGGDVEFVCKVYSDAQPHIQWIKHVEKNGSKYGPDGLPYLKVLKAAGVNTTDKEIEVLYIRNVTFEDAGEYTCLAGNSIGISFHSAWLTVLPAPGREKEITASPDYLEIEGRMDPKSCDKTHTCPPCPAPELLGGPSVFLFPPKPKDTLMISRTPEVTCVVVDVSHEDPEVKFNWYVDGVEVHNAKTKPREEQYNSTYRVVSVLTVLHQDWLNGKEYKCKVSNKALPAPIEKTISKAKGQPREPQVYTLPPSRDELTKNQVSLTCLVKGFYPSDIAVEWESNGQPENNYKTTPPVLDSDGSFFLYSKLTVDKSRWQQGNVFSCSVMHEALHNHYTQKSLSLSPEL

Evaluation result of binding affinity to FGFR, C (0.1 or more and less than 0.5):
69 (KCPQNFINPVQWRYFQHYAKN; not fully specified; also: cyclic peptide, ring places not shown) [compound 69]
186 (YCEENLLDPEQYQYFIYFK(COCH2)Y; thioether 2-19 (inferred)) [compound 186]
252 (YCEENYLDPEQLQYFIYFK(COCH2)Y; thioether 2-19 (inferred)) [compound 252]
183 (YCEEQYLDPEQYQYFIYFK(COCH2)Y; thioether 2-19 (inferred)) [compound 183]
327 (YCEENYADPEQYQYFIYFK(COCH2)Y; thioether 2-19 (inferred)) [compound 327]
408 (HCSQHQTTYYQIYAYLHAIK(COCH2)I; thioether 2-20 (inferred)) [compound 408]
384 (QCQLYYLYQYTIAIK(COCH2)T; thioether 2-15 (inferred)) [compound 384]
191 (YCEENSLDPEQYQYFIYFK(COCH2)Y; thioether 2-19 (inferred)) [compound 191]

Evaluation result of binding affinity to FGFR, A (0.7 or more):
351 (YCEENYMDPEQYQYFIYFK(COCH2)Y; thioether 2-19) [compound 351]
411 (TCVDKDNWYNHVQWQYFFLYK(COCH2)Q; thioether 2-21 (inferred)) [compound 411]
343 (YCEENYLDPEQYKYFIYFK(COCH2)Y; thioether 2-19) [compound 343]
54 (KCAQNFINPVQWRYFQHYKN; Description of Artificial Sequence: Cyclic peptide) [compound 54]
342 (YCEENYLDPKQYQYFIYFK(COCH2)Y; thioether 2-19) [compound 342]
179 (YCERNYLDPEQYQYFIYFK(COCH2)Y; thioether 2-19 (inferred)) [compound 179]
45 (TCPQNFRDELQFTYFTQYKY; Description of Artificial Sequence: Cyclic peptide) [compound 45]
321 (YCEENYLDPEQYQYFIYFK(COCH2)H; thioether 2-19 (inferred)) [compound 321]
315 (YCEENYLDPEQYQYFIYFK(COCH2)Q; thioether 2-19 (inferred)) [compound 315]
228 (YCEENYLDNEQYQYFIYFK(COCH2)Y; thioether 2-19 (inferred)) [compound 228]
239 (YCEENYLDPIQYQYFIYFK(COCH2)Y; thioether 2-19 (inferred)) [compound 239]
309 (YCEENYLDPEQYQYFIYFK(COCH2)L; thioether 2-19 (inferred)) [compound 309]
144 (QCEENYLDPEQYQYFIYFKY; Description of Artificial Sequence: Cyclic peptide) [compound 144]
259 (YCEENYLDPEQYIYFIYFK(COCH2)Y; thioether 2-19 (inferred)) [compound 259]
63 (KCPQNFINPVQWAYFQHYK(COCH2)N; thioether 2-19 (inferred)) [compound 63]
295 (YCEENYLDPEQYQYFIVFK(COCH2)Y; thioether 2-19) [compound 295]
283 (YCEENYLDPEQYQYFNYFK(COCH2)Y; thioether 2-19) [compound 283]
53 (ACPQNFINPVQWRYFQHYKN; not fully specified; Description of Artificial Sequence: Cyclic peptide) [compound 53]
391 (YCEENYLDPEQYQYFHYFK(COCH2)H; thioether 2-19 (inferred)) [compound 391]
395 (YCHENYLDPEQYQYFHYFK(COCH2)H; thioether 2-19 (inferred)) [compound 395]
203 (YCEENYTDPEQYQYFIYFK(COCH2)Y; thioether 2-19 (inferred)) [compound 203]

Evaluation result of binding affinity to FGFR, B (0.5 or more and less than 0.7):
403 (ACRRANWIHPIQWFFFHVYK(COCH2)H; thioether 2-20 (inferred)) [compound 403]

Evaluation result of binding affinity to FGFR, D (less than 0.1):
34 (CRALLRGAPFHLAEC; disulfide 1-15) [compound 34]

Target: T2, Recombinant Human FGFR2 alpha (IIIc) Fc Chimera Protein, CF (R&D systems, 712-FR-050) (human, UniProt P21802 22-377)
T2 construct: bought; not shown: Fc part of the chimera
Assay: ELISA on plate-bound FGFR2-Fc
Details: not given
Procedure, shortened: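 Plate-immobilized FGFR2 alpha (IIIc)-Fc (5 ng/well) incubated with peptide 3 h at room temperature, then anti-Myc antibody 2 h and chemiluminescent ELISA substrate. Signal corrected by subtracting FGFR-free wells; binding affinity scored into categories from the dose-response.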

T2 sequence (P21802 22-377, change not shown): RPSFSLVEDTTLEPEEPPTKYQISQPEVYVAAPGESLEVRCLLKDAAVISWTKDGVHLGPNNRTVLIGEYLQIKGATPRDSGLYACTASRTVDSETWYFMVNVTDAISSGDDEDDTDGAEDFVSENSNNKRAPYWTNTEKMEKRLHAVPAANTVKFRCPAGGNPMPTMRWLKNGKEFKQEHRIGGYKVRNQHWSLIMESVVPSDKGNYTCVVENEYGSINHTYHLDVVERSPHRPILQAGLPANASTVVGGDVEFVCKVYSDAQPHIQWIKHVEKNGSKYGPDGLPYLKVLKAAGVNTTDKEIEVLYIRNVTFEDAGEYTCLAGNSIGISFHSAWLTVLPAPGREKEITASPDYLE

ELISA luminescence signal at 10 nmol/L peptide, relative to SEQ ID NO: 47 (=1), 0.1 to 0.5 ratio:
DCRDLQLFYIYQYLDALKK (not fully specified; thioether ring (C)-(K(acetyl))) [cyclic peptide SEQ ID NO: 124]

ELISA luminescence signal at 10 nmol/L peptide, relative to SEQ ID NO: 47 (=1), < 0.1 ratio:
B1
CRALLRGAPFHLAEK(COCH2) (thioether 1-15) [cyclic peptide SEQ ID NO: 36]
YRSRKYSSWYVALKR (not fully specified) [linear peptide SEQ ID NO: 35]

ELISA luminescence signal at 10 nmol/L peptide, relative to SEQ ID NO: 47 (=1), ≥ 0.7 ratio:
ECPWNFVNQLQWQYFITYK(COCH2)V (thioether 2-19) [cyclic peptide SEQ ID NO: 129]
YCPYNFYNIIQFHYFLTYK(COCH2)T (thioether 2-19) [cyclic peptide SEQ ID NO: 127]
PCVQNYFNDLQWIFLQHYK(COCH2)R (thioether 2-19) [cyclic peptide SEQ ID NO: 128]
LCEINWLSQEQYGYFIEYK(COCH2)T (thioether 2-19) [cyclic peptide SEQ ID NO: 126]
ECQENFVDRQQYWYFLSYK(COCH2)F (thioether 2-19) [cyclic peptide SEQ ID NO: 132]
HCDGNWWNSQQFFYLLLYK(COCH2)H (thioether 2-19) [cyclic peptide SEQ ID NO: 130]
YCRDNYFYLEQWQYLYLYK(COCH2)H (thioether 2-19) [cyclic peptide SEQ ID NO: 125]
QCQNFITEVQFTYFWHYK(COCH2)T (thioether 2-18) [cyclic peptide SEQ ID NO: 123]
